Experimental findings from US20180009892A1 (EUREKA THERAPEUTICS, published 2018) are described below.

For one assay, the target named is T1, human ROR2-ECD (human, UniProt Q01974 34-403).
T1 construct: extracellular domain; also called hROR2
Description: protein ELISA, phage. For orientation: An ELISA detects its analyte on a solid surface through an enzyme-linked reagent.

The target in assay [1] is T2, human ROR1 extracellular domain (ECD) protein (human, UniProt Q01973 30-406).
T2 construct: also called hROR1-ECD; human ROR1-ECD
Briefly: competitive phage ELISA: soluble ROR1 against ROR1-coated plate. On the procedure: Purified phage antibodies were first diluted serially in PBST buffer, and tested for binding to a ROR1-coated plate. The dilution that gave 50-80% saturating signal was used in the solution binding assay in which phage were first incubated with increasing concentration of ROR1 for one to two hours, and then transferred to a ROR1-coated plate for 10-15 minutes to capture the unbound phage.

T1 sequence (Q01974 34-403): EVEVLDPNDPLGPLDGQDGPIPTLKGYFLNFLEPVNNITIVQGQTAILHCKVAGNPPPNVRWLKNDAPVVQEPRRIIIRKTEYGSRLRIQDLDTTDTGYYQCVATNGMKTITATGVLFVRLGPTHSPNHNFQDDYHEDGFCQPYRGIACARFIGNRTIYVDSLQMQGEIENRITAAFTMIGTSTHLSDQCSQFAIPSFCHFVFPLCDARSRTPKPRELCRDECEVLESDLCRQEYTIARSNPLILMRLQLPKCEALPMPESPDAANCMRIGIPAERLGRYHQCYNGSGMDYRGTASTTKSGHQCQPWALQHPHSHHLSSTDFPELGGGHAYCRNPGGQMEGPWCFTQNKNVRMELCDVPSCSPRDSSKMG
T2 sequence (Q01973 30-406 limits assumed): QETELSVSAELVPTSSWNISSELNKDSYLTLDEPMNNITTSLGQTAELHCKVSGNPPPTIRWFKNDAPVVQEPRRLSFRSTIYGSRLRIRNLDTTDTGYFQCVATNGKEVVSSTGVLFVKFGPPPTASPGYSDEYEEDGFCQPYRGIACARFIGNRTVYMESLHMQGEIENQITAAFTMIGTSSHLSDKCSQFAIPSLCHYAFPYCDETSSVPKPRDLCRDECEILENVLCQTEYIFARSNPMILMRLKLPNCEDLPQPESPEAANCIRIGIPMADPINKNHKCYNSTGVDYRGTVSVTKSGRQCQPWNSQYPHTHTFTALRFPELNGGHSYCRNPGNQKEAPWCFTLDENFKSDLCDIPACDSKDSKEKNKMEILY

B1: P601-101 (scFv, V domains shown)
VH: EVQLVQSGNEVKRPGASVKVSCKASGHSFSTYGFSWVRQAPGQGLEWMGWISTYNGNTNYAQKLQGRVTMTTDTSTSTAYMELRSLRSDDTAVYYCARDYYSDSSGYWDDAFDIWGQGTLVTVSS
VL: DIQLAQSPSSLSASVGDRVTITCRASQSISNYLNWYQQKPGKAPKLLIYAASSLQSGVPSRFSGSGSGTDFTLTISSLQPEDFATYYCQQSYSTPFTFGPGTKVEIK
In general, IC50 refers to the concentration that inhibits the measured activity by half. Higher therefore signals weaker potency in that assay. Turning to B1, the binding result with human ROR2-ECD is reported as “no binding”. The same molecule yielded an IC50 in assay [1] of 1.5 nM.

B2: P601-6 (scFv, V domains shown)
VH: EVQLVESGGGLVKPGGSLKLSCAASGFTFSDYYMGWVRQAPGKGLKWLSYISDRAHTIYDTHSVKGRFTISRDDAKSSLYLRMNNLRVEDTAVYYCARAVGAGEGFDYWCQGTLVTVSS
VL: DIQMTQSPSSLSASVGDRVTITCQASQDIRNYLNWYQQKPGKAPKLLIYAASNLETGVPSRFSGSGSGTDFTFTISSLQPEDIATYYCQQDDNLPLTFGGGTKLEIK
The molecule B2 returned a half-maximal inhibitory concentration (IC50) in assay [1] of 2.12 nM.

B3: P601-149 (scFv, V domains shown, not shown: large carriers; small tags and cut ends)
VH: EAQLVESGGGLVKPGGSLRLSCAASGFTFSDYYMGWVRQAPGKGLKWLSYISDRAHTIYDTDSVKGRFTISRDDAKSSLYLRMNNLRVEDTAVYYCARAVGAGEGFDYWGQGTLVTVSS
VL: DIQLTQSPSSLSASVGDRVTITCQASQDVRNYLNWYQQKPGKAPNLLIYDATNLESGVPSRFSGSGSGTDFTFTISSLQPEDFATYYCQQYDNLPLSFGGGTKVEIK
In the case of B3, the IC50 in assay [1] amounted to 2.76 nM. This IC50 and that of the molecule before are within 1.5-fold of each other.

B4: P601-5 (scFv, V domains shown)
VH: EVQLVESGGGLVKPGGSLRLSCAASGFTFSDYYMGWVRQAPGKGLKWLSYISDRAHTIYDTDSVKGRFTISRDDAKSSLYLRMNNLRVEDTAVYYCARAVGAGEGFDYWGQGTLVTVSS
VL: not shown
Take B4: the binding result with human ROR2-ECD is “no binding”.

B5: P601-87 (scFv, V domains shown)
VH: QVQLQESGPGLVKSSETLSLTCTVSGGSMNNYYWSWIRQPAGKGLEWMGRIYSSGSTNYNPALKSRVTMSVDTSKNQFSLNLSSVTAADTAIYYCARASWSGTYWALFDYWGQGTLVTVSS
VL: ETTLTQSPAFMSATPGDKVNISCKASQDIDDDLNWYQQKPGEAPILIIQEATTLVPGIPPRFSGSGFGTDFTLTINSMQSEDVAYYFCLQHDNFPPTFGQGTKVEIK
With B5, the binding result with human ROR2-ECD is reported as “no binding”. This molecule also came in with an IC50 in assay [1] of 3.86 nM.

B6: P601-81 (scFv, V domains shown)
VH: EVQLVESGGGVVRPGGSLRLSCATSGFNFDNYGLSWVRQGPGKGLEWMGFIYKSVNTNYSPSLKSRLTISMDTSKNQFSLNLASVTTADTAIYYCARGKVETSVVDYWGQGTLVTVSS
VL: NFMLTQPRSVSESPGKTVTISCTGNGGRVANNYVQWYQQRPGSAPTTVIYEDNQRPSGVPARFSGSIDSSSNSASLTISGLKTDDEADYYCQSYDISNQRVFGGGTKLTVL
As to B6, the binding result in the assay with human ROR2-ECD was “no binding”. The IC50 in assay [1] was 2.76 nM.

B7: P601-86 (scFv, V domains shown)
VH: QVTLKESGPTLLKPTQTLTLTCTFSGFSLSTRGVGVGWIRQPPGQALEWLTLIYWDDDKRYSPSLKSRLTITKDTSKNQVVLTMTNMESVDTATYYCAQQTMTGAFDIWGQGTTVTVSS
VL: DIQMTQSPSSVSASVGDRVTITCRASQGISTLLAWYQQKPGKAPKLLISSASSLQSGVPARFSGSGSGTDFTLTISSLQPEDFATYYCQQSYRAPTFGQGTKVEIKR
As to B7, the binding result with human ROR2-ECD was “no binding”. Also, the IC50 in assay [1] was 1.84 nM.

B8: P601-13 (scFv, V domains shown)
VH: EVQLVQSGAEVKKPGSSVKVSCKASGGTFSTFAINWVRQAPGQGLEWMGGVIPVSGTEDYSQKFQGRLSLTADESTGTAYMELSSLRSDDTAVYYCARDRSGRDWDYFDYWGQGTLVTVSS
VL: DIVMTQSPSSLSASVGDRVTITCQASQDISNYLNWYQQKPGKAPKLLIYDASNLETGVPSRFSGSGSGTDFIFTISSLQPEDIATYYCQQFDNLPYTFGQGTKVEIKR
On to B8, for which the binding result with human ROR2-ECD is listed as “no binding”. Moreover, the IC50 in assay [1] is 1.21 nM.

B9: P601-153 (scFv, V domains shown, not shown: large carriers; small tags and cut ends)
VH: QMQLVQSGAEVKKPGASVKVSCKASGYTFTSYYMHWVRQAPGQGLEWMGIINPSGGSTSYAQKFQGRVTMTRDTSTSTVYMELSSLRSEDTAVYYCARGGYTGWSPSDPWGQGTLVTVSS
VL: QSALTQPASVSGSPGQSITISCTGTSSDVGGYNYVSWYQQHPGKAPKFMIYDVSKRPSGVSNRFSGSKSGNTASLTISGLQAEDEADYYCGSFTSSITYVFGTGTKVTVL
B9 displayed an IC50 in assay [1] of 1.53 nM. That is a single-digit nanomolar value.

B10: P601-137 (scFv, V domains shown)
VH: QVQLQQSGAEVKKPGASVKVSCKASGYTFSRYYIHWVRQAPGQGLEWMGIINTDGGTTTYAQKFQGRLTMTRDTSTSTVYMELSSLRSDDTAVYYCARDYGTIDARRFDYWGQGTLVTVSS
VL: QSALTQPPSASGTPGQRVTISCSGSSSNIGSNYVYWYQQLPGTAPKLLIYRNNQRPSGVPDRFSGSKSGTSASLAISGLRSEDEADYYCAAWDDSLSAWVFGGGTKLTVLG
As to B10, the binding result with human ROR2-ECD was “no binding”. In assay [1], this molecule came in with an IC50 of 1.82 nM.

B11: P601-136 (scFv, V domains shown)
VH: QVQLVQSGAEVKKPGASVKVSCKASGYTFSRYYIHWVRQAPGQGLEWMGLINPGGGSTNYAQKFQGRVTMTRDTSTNTVYLELSSLRSDDTAVYYCARDYGTIDARRFDFWGQGTLVTVSS
VL: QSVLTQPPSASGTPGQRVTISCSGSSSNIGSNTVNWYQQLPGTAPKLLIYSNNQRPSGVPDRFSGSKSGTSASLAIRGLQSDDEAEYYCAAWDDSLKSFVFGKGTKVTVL
Turning to B11, in the assay with human ROR2-ECD, the binding result was “no binding”. In addition, in assay [1], the IC50 was found to be 3.02 nM.

B12: P601-3 (scFv, V domains shown)
VH: QVTLKESGPTLVKPTQTLTLTCTFSGFSLNSFGVAVGWFRQPPGKALEWLGLIYWDDDRRYFPSLEGRLSITKDASDNNVVLTMMNVDPADTATYYCARTSPMVQGIANYYAMDVWGQGTTVTVSS
VL: not shown
As to B12, in the assay with human ROR2-ECD, the binding result is given as “no binding”.

B13: P601-40 (scFv, V domains shown)
VH: QVQLQQSGAEVKKPGASVKVSCKASGYTSTNYGISWVRQAPGQGLEWMGWISTYNGNTNYAQKLQGRVTMTTDTSTSTAYMELRSLRSDDTAVYYCARDYYSDSSGYWDDAFDIWGQGTMVTVSS
VL: DIQLTQSPSSLSASVGDRVTITCRASQNINNYLNWYQQKPGKAPKLLLYAASSLQSGVPSRFSGSGSGTEFTLTISSLHPEDFATYYCQQSYNTPFTFGPGTKVDIKR
Take B13: the binding result with human ROR2-ECD was “no binding”. The IC50 in assay [1] was 0.2 nM.

B14: P601-2 (scFv, V domains shown)
VH: QVTLKESGPTLVKPTQTLTLTCTFSGFSLSSFGVAVGWFRQPPGKALEWLGLIYWDDDKRYSPSLKTRLTITKDTSKNQVVLTMTNMDPVDTATYYCAHKGGIATTGSPNWFDPWGQGTLVTVSS
VL: not shown
Take B14: in the assay with human ROR2-ECD, the binding result was “no binding”.

B15: P601-112 (scFv, V domains shown)
VH: EVQLVQSGGDLVQPGGSLRLSCAASGFTFSSYSMNWVRQAPGKGLEWVSSISSSSSYIYYADSVKGRFTISRDNAKNSLYLQMNSLRAEDTAVYYCARGLGGWTHDAFDIWGQGTTVTVSS
VL: QSALTQPASVSGSPGQSITISCTGTSSDVGGYNYVSWYQQHPGKAPKLMIYDVSKRPSGVSNRFSGSKSGNTASLTISGLQAEDEADYYCSSYTGRSTVFGGGTKLTVL
As for B15, the binding result with human ROR2-ECD is “no binding”. In assay [1], this molecule gave an IC50 of 2.89 nM.

B16: P601-109 (scFv, V domains shown)
VH: QMQLVQSGGDLVQPGGSLRLSCAASGFTFSSYSMNWVRQAPGKGLEWVSSISSSSSYIYYADSVKGRFTISRDNAKNSLYLQMNSLRAEDTAVYYCARGLGGWTHDAFDIWGQGTTVTVSS
VL: QSALTQPASVSGSPGQSITISCTGTSSDVGGYNYVSWYQQHPGKAPKLLIYEVSQRPSGVPDRFSGSKSGNTASLTVSGLQAEDEADYYCSSYAGDRDVFGTGTQLTVLS
For B16, in the assay with human ROR2-ECD, the binding result is given as “no binding”. Besides, the IC50 in assay [1] was found to be 0.22 nM.

B17: P601-120 (scFv, V domains shown)
VH: EVQLVQSGGDLVQPGGSLRLSCAASGFTFSSYSMNWVRQAPGKGLEWVSSISSSSSYIYYADSVKGRFTISRDNAKNSLYLQMNSLRAEDTAVYYCARGLGGWTHDAFDIWGQGTTVTVSS
VL: QSALTQPASVSGSPGQSITISCTGTSSDVGGYNYVSWYQQHPGKAPKLMIYDVSNRPSGVSNRFSGSKSGNTASLTISGLQAEDEADYYCSSYTSSSTRVFGGGTKLTVL
For B17, in the assay with human ROR2-ECD, the binding result is listed as “no binding”. Also, in assay [1], the 50% inhibitory concentration (IC50) stood at 1.92 nM.

B18: P601-103 (scFv, V domains shown)
VH: EVQLVQSGGDLVQPGGSLRLSCAASGFTFSSYSMNWVRQAPGKGLEWVSSISSSSSYIYYADSVKGRFTISRDNAKNSLYLQMNSLRAEDTAVYYCARGLGGWTHDAFDIWGQGTTVTVSS
VL: QSVLTQPASVSGSPGQSITISCTGTTSDVGGYNYVSWYQQHPGKAPKLMIYDVSKRPSGVSNRFSGSKSGNTASLTISGLQAEDEADYYCSSYTSSSTDVFGTGTKLTVL
For B18, in the assay with human ROR2-ECD, the binding result was “no binding”. The IC50 in assay [1] stood at 8.72 nM.

B19: P601-110 (scFv, V domains shown)
VH: QVQLVQSGGDLVQPGGSLRLSCAASGFTFSSYSMNWVRQAPGKGLEWVSSISSSSSYIYYADSVKGRFTISRDNAKNSLYLQMNSLRAEDTAVYYCARGLGGWTHDAFDIWGQGTTVTVSS
VL: QSALTQPASVSGSPGQSITLSCTGTSSDVGGYNYVSWYQQHPGNGPKLIIYDVTKRPSGVSNRFSGSKSGNTAYLTISGLQAEDEADYYCASYTRSTTLVFGGGTKLTVL
Regarding B19, the binding result with human ROR2-ECD is on record as “no binding”. In addition, the IC50 in assay [1] turned out to be 4.57 nM.

B20: P601-66 (scFv, V domains shown)
VH: QVQLVQSGAEVKEPGASVKVSCKASGYTFRNSGITWVRQAPGQGLEWMGWINPNSGGAMYVDNFQGRATMTRDTSINTAYMELRSLSSDDTAVYYCARGMADLIDVFDIWGQGTLVTVSS
VL: TQPALTQPASVSGSPGQSITISCTGTSSDFGDYDYVSWYQQHPGKAPKLMIYDVSDRPSGVSNRFSGSKSGNTASLTISGLQAEDEADYFCSSFTTSSTLVFGGGTKLTVL
As for B20, the IC50 in assay [1] was found to be 4.05 nM.

B21: P601-130 (scFv, V domains shown)
VH: EVQLVETGGGLVKPGGSLRLSCEASGFSLSSYSMNWVRQAPGKGLEWVSSISSSSTHIYYADSLKGRFTISRDNAKNSLFLQMDNLRAEDTAVYYCARATIGFDYWGQGTLVTVSS
VL: QSVLTQPPSVSGAPGQRVTISCTGSSSNIGAGYDVHWYQQLPGTAPKLLIYGNSNRPSGVPDRFSGSKSGTSASLAITGLQAEDEADYYCQSYDSSLSGYVFGTGTKLTVL
For B21, the binding result with human ROR2-ECD is given as “no binding”. Besides, the IC50 in assay [1] came to 3.08 nM.
